US20170247475A1 (Boehringer Ingelheim, published 2017)
Where a chain is given by its changes, count along the chain named.

B1: VEGFBII22A10 (VHH)
VHH: EVQLVESGGGLVQPGDSLKLSCAFSGRTFSSYSMGWFRQAQGKEREFVVAISSSGGYIYDSVSLEGRFTISRDNTKNTVYLQTPSLKPEDTADYYCAASRAYGSSRLRLADTYDYWGQGTQVTVSS
notes: periplasmic extract
B2: VEGFBII39E02 (VHH)
VHH: B1 VHH with S17P
notes: periplasmic extract
B3: VEGFBII30E07 (VHH)
VHH: B1 VHH with P14A, K19R, F24A, G56N, I58K, T83I, P84N, D93V, A110G, Q121R
notes: periplasmic extract
B4: VEGFBII39G04 (VHH)
VHH: EVPLVESGGGLVQAGDSLRLSCAASGRTFSSYSMGWFRQAQGKEREFVVAISSSGNYKYDSASLEGRFTISRDNTKNTVYLQINSLKPEDTAVYYCAASRAYGSSRLRLGDTYDYWGQGTQVTVSS
notes: periplasmic extract
B5: VEGFBII62A09 (VHH)
VHH: B1 VHH with G10D, F24A, D93V
notes: periplasmic extract
B6: VEGFBII22B06 (VHH)
VHH: B1 VHH with F24A, D93V
notes: periplasmic extract
B7: VEGFBII60A09 (VHH)
VHH: B1 VHH with K76R
notes: periplasmic extract
B8: VEGFBII40G07 (VHH)
VHH: B1 VHH with T78A
notes: periplasmic extract
B9: VEGFBII23F05 (VHH)
VHH: B4 VHH with P3Q, A62V, E89K
notes: periplasmic extract
B10: VEGFBII62D10 (VHH)
VHH: B4 VHH with P3Q, G8E, A62V
notes: periplasmic extract
B11: VEGFBII23G03 (VHH)
VHH: B1 VHH with S30G, T75S, D93V, A110P, D111G
notes: periplasmic extract
B12: VEGFBII56E11 (VHH)
VHH: B1 VHH with T91A
notes: periplasmic extract
B13: VEGFBII23F11 (VHH)
VHH: B1 VHH with S54G
notes: periplasmic extract
B14: VEGFBII42A05 (VHH)
VHH: B1 VHH with T83M
notes: periplasmic extract
B15: VEGFBII40H10 (VHH)
VHH: B1 VHH with V5M
notes: periplasmic extract
B16: VEGFBII42D05 (VHH)
VHH: B1 VHH with D93V
notes: periplasmic extract
B17: VEGFBII22B07 (VHH)
VHH: B4 VHH with P3Q, A62V
notes: periplasmic extract
B18: VEGFBII23A09 (VHH)
VHH: B1 VHH with S30G, T75S, D93V, A110P
notes: periplasmic extract
B19: VEGFBII31C07 (VHH)
VHH: B1 VHH with P14T, K19R, F24A, R27G
notes: periplasmic extract
B20: VEGFBII41B05 (VHH)
VHH: EVQLVESGGGLVQPGGSLRLSCAFSGRTFSSYSMGWFRQAQGKEREFVVAISSGGFIYDAVSLEGRFTISRDNTKNTVYLQTPSLKPEDTAVYYCAASRAYGSSRLRLADTYDYWGQGTQVTVSS
notes: periplasmic extract
B21: VEGFBII62F02 (VHH)
VHH: B20 VHH with G16D, R19K, S52A, F56Y, N76D
notes: periplasmic extract
B22: VEGFBII61A01 (VHH)
VHH: B20 VHH with P14A, F56Y, I57K, G102A
notes: periplasmic extract
B23: VEGFBII41G03 (VHH)
VHH: B20 VHH with G16D, R19K, G35A, D72E
notes: periplasmic extract
B24: VEGFBII42F11 (VHH)
VHH: B20 VHH with G16D, R19K, A23V, F24A, F29S, M34V, F56Y, A60S, E64Q
notes: periplasmic extract
B25: VEGFBII111D05 (VHH)
VHH: EVQLVESGGGLVQTGGSLRLSCEASGRTFSSYSMGWFRQAPGKEREFVVAISKGGYKYDSVSLEGRFTISRDNAKNTVYLQINSLRPEDTAVYYCASSRAYGSSRLRLADTYEYWGQGTLVTVSS
B26: VEGFBII112D11 (VHH)
VHH: B25 VHH with T14P
B27: VEGFBII113A08 (VHH)
VHH: B25 VHH with A24V, R71K
B28: VEGFBII111G06 (VHH)
VHH: B25 VHH with T14P, E23A, I82M

target: T1, recombinant human VEGF165 (human, UniProt P15692-4 27-191); experiment: Biacore, periplasmic extract on hVEGF165 chip, two phase decay fit
T1 construct: also called hVEGF165; rhVEGF165
Procedure: (§1) Dissociation rates of inhibitory VHHs are analyzed on Biacore (Biacore T100 instrument, GE Healthcare). HBS-EP+ buffer is used as running buffer and experiments are performed at 25° C. […] After immobilization, surfaces are deactivated with 10 min injection of 1M ethanolamine pH8.5. A reference surface is activated and deactivated with respectively EDC/NHS and ethanolamine. Periplasmic extracts of VHHs are injected at a 10-fold dilution in running buffer for 2 min at 45 μl/min and allowed to dissociate for 10 or 15 min. Between different samples, the surfaces are regenerated with regeneration buffer. Data are double referenced by subtraction of the curves on the reference channel and of a blank running buffer injection. […] is evaluated by fitting a two phase decay model in the Biacore T100 Evaluation software v2.0.1.

T1 sequence (P15692 other isoform, or with tags, fused parts or gaps limits assumed): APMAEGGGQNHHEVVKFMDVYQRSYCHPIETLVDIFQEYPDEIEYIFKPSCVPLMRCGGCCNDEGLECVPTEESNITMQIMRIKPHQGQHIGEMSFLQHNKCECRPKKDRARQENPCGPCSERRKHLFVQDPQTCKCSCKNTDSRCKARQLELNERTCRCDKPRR

Binder | % fast [%]
B1 | 19
B2 | 13
B3 | 29
B4 | 40
B5 | 23
B6 | 23
B7 | 20
B8 | 19
B9 | 29
B10 | 40
B11 | 28
B12 | 24
B13 | 22
B14 | 25
B15 | 17
B16 | 26
B17 | 31
B18 | 20
B19 | 25
B20 | 16
B21 | 21
B22 | 21
B23 | 20
B24 | 46

target: T1, recombinant human VEGF165; experiment: Biacore, periplasmic extract on hVEGF165 chip
Procedure: as §1

Binder | Binding level (RU)
B1 | 229
B2 | 181
B3 | 226
B4 | 210
B5 | 84
B6 | 168
B7 | 106
B8 | 139
B9 | 198
B10 | 94
B11 | 141
B12 | 76
B13 | 134
B14 | 118
B15 | 200
B16 | 77
B17 | 328
B18 | 247
B19 | 77
B20 | 324
B21 | 205
B22 | 275
B23 | 332
B24 | 100

target: T1, recombinant human VEGF165; experiment: VEGF165/VEGFR2 AlphaScreen

Binder | % inhibition [%] | IC50 [nM]
B25 | 100 | 0.209
B26 | 100 | 0.221
B27 | 100 | 0.253
B28 | 100 | 0.366
